Reference: US20160264649A1

Tests used:
Assay in all cases: cell-based or functional assay
HIV-1 ADA Env (HIV-1) = molecular target: HIV-1 ADA Env (HIV-1)
[1] = molecular target: HIV-1 JR-CSF Env (wild-type) (HIV-1) (UniProt P20871)
[2] = molecular target: HIV-1 Env of isolate 92WR026 (subtype A) (HIV-1)
[3] = molecular target: HIV-1 Env of isolate MG RM-C-025 (subtype C) (HIV-1)
[4] = molecular target: HIV-1 Env of isolate MG RM-C-028 (subtype C) (HIV-1)
[5] = molecular target: HIV-1 Env of isolate THR0.18 (subtype B) (HIV-1)
[6] = molecular target: HIV-1 Env of isolate 92UG024 (subtype D) (HIV-1)
[7] = molecular target: HIV-1 Env of isolate CAAN.A2 (subtype B) (HIV-1)
[8] = molecular target: HIV-1 Env of isolate 93WR029 (subtype A) (HIV-1)
[9] = molecular target: HIV-1 Env of isolate TRJ04551.58 (subtype B) (HIV-1)
[10] = molecular target: HIV-1 Env of isolate 97ZA012 (subtype C) (HIV-1)
[11] = molecular target: HIV-1 Env of isolate MGRM-F1-020 (subtype F) (HIV-1)
[12] = molecular target: HIV-1 Env of isolate MG RM-C-019 (subtype C) (HIV-1)
[13] = molecular target: HIV-1 Env of isolate APV_6 (subtype B) (HIV-1)
[14] = molecular target: HIV-1 Env of pseudovirus isolate MGRM-G-027 (subtype G) (HIV-1)
[15] = molecular target: HIV-1 Env of isolate MGRM-D-013 (subtype D) (HIV-1)
[16] = molecular target: HIV-1 Env of isolate MGRM-AE-008 (subtype AE) (HIV-1)
[17] = molecular target: HIV-1 Env of pseudovirus isolate MGRM-G-019 (subtype G) (HIV-1)
[18] = molecular target: HIV-1 Env of isolate MGRM-D-008 (subtype D) (HIV-1)
[19] = molecular target: HIV-1 Env of isolate MGRM-AE-001 (subtype AE) (HIV-1)
[20] = molecular target: HIV-1 Env of isolate 92UG037 (subtype A) (HIV-1)
[21] = molecular target: HIV-1 Env of isolate MGRM-D-021 (subtype D) (HIV-1)
[22] = molecular target: HIV-1 Env of isolate MGRM-Chronic-B-001 (subtype B) (HIV-1)
[23] = molecular target: HIV-1 Env of pseudovirus isolate MGRM-G-025 (subtype G) (HIV-1)
[24] = molecular target: HIV-1 Env of pseudovirus isolate MGRM-G-013 (subtype G) (HIV-1)
[25] = molecular target: HIV-1 Env of isolate SF162 (subtype B) (HIV-1) (UniProt P19550)
[26] = molecular target: HIV-1 Env of isolate MGRM-D-022 (subtype D) (HIV-1)
[27] = molecular target: HIV-1 Env of isolate QH0692.42 (subtype B) (HIV-1)
[28] = molecular target: HIV-1 Env of isolate MGRM-F1-022 (subtype F) (HIV-1)
[29] = molecular target: HIV-1 Env of isolate MGRM-F1-008 (subtype F) (HIV-1)
[30] = molecular target: HIV-1 Env of isolate MGRM-D-001 (subtype D) (HIV-1)
[31] = molecular target: HIV-1 Env of isolate MGRM-F1-021 (subtype F) (HIV-1)
[32] = molecular target: HIV-1 Env of isolate 92UG001 (subtype D) (HIV-1)
[33] = molecular target: HIV-1 Env of isolate 92 BR 020 (subtype B) (HIV-1)
[34] = molecular target: HIV-1 Env of isolate NL43 (subtype B) (HIV-1)
[35] = molecular target: HIV-1 Env of isolate MGRM-D-029 (subtype D) (HIV-1)
[36] = molecular target: HIV-1 Env of isolate APV_13 (subtype B) (HIV-1)
[37] = molecular target: HIV-1 Env of isolate JRFL (subtype B) (HIV-1)
[38] = molecular target: HIV-1 Env of isolate 98CN006 (subtype CRF08_BC) (HIV-1)
[39] = molecular target: HIV-1 Env of isolate 92UG005 (subtype D) (HIV-1)
[40] = molecular target: HIV-1 Env of isolate MGRM-D-018 (subtype D) (HIV-1)
[41] = molecular target: HIV-1 Env of isolate MGRM-F1-015 (subtype F) (HIV-1)
[42] = molecular target: HIV-1 Env of isolate MGRM-Chronic-B-003 (subtype B) (HIV-1)
[43] = molecular target: HIV-1 Env of isolate 93UG077 (subtype A) (HIV-1)
[44] = molecular target: HIV-1 Env of isolate MGRM-F1-023 (subtype F) (HIV-1)
[45] = molecular target: HIV-1 Env of isolate MGRM-Chronic-B-020 (subtype B) (HIV-1)
[46] = molecular target: HIV-1 Env of isolate MGRM-F1-017 (subtype F) (HIV-1)

Sequence of 1443_C16 (PG16) (TCN-116) (antibody) (VH): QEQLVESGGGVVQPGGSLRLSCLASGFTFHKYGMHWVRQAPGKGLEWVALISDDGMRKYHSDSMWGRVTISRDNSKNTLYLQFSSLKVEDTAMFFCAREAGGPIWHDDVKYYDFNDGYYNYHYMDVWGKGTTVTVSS
Sequence of 1443_C16 (PG16) (TCN-116) (antibody) (VL): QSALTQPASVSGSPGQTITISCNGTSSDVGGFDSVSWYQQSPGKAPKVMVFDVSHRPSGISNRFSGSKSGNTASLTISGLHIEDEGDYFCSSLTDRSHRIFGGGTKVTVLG

## 1443_C16 (PG16) (TCN-116) (antibody)
HIV-1 ADA Env (HIV-1)
  IC50, TZM-bl pseudovirus neutralization: 0.004 µg/mL
[1]
  IC50, TZM-bl pseudovirus neutralization: 1 ng/mL

## 1496_C09 (PG9) (TCN-109) (antibody)
[2]
  IC50 (pseudovirus neutralization): 0.164 µg/mL
[3]
  IC50 (µg/mL), pseudovirus neutralization: 0.148 µg/mL
[4]
  IC50 (µg/mL), pseudovirus neutralization: 0.067 µg/mL
[5]
  IC50 (µg/mL), pseudovirus neutralization: 26.4 µg/mL
[6]
  IC50 (neutralization): 1.86 µg/mL
[7]
  IC50: 19.3 µg/mL
[8]
  IC50 (pseudovirus neutralization): 0.69 µg/mL
[9]
  IC50 (µg/mL), pseudovirus neutralization: 0.858 µg/mL
[10]
  IC50 (µg/mL), pseudovirus neutralization: 3.4 µg/mL
[11]
  IC50 (pseudovirus neutralization): 6.4 µg/mL
[12]
  IC50 (µg/mL), pseudovirus neutralization: 0.005 µg/mL
[13]
  IC50: 0.181 µg/mL
[14]
  IC50: 0.007 µg/mL
[15]
  IC50 (pseudovirus neutralization): 0.021 µg/mL
[16]
  IC50 (pseudovirus neutralization): 31.5 µg/mL
[17]
  IC50: 14.6 µg/mL
HIV-1 ADA Env (HIV-1)
  IC50, TZM-bl pseudovirus neutralization: 0.2 µg/mL
[1]
  IC50, TZM-bl pseudovirus neutralization: 6 ng/mL
[18]
  IC50 (pseudovirus neutralization): 11.5 µg/mL
[19]
  IC50 (pseudovirus neutralization): 20.6 µg/mL

## PGV04 (antibody)
[20]
  IC50 (pseudovirus neutralization): 0.145 µg/mL
[21]
  IC50 (pseudovirus neutralization): > 50 µg/mL
[22]
  IC50: 0.048 µg/mL
[23]
  IC50: 1.61 µg/mL
[2]
  IC50 (pseudovirus neutralization): 0.14 µg/mL
[3]
  IC50 (µg/mL), pseudovirus neutralization: > 50 µg/mL
[24]
  IC50: 0.168 µg/mL
[25]
  IC50 (µg/mL), pseudovirus neutralization: 0.028 µg/mL
[26]
  IC50 (pseudovirus neutralization): > 50 µg/mL
[4]
  IC50 (µg/mL), pseudovirus neutralization: 0.149 µg/mL
[27]
  IC50: 1.9 µg/mL
[28]
  IC50 (pseudovirus neutralization): 0.072 µg/mL
[29]
  IC50 (pseudovirus neutralization): 1.03 µg/mL
[30]
  IC50 (pseudovirus neutralization): > 50 µg/mL
[5]
  IC50 (µg/mL), pseudovirus neutralization: > 50 µg/mL
[31]
  IC50 (pseudovirus neutralization): 0.031 µg/mL
[32]
  IC50 (neutralization): 0.553 µg/mL
[6]
  IC50 (neutralization): 0.201 µg/mL
[33]
  IC50: 0.25 µg/mL
[34]
  IC50 (µg/mL), pseudovirus neutralization: 0.028 µg/mL
[7]
  IC50: 2.26 µg/mL
[8]
  IC50 (pseudovirus neutralization): 0.54 µg/mL
[9]
  IC50 (µg/mL), pseudovirus neutralization: 0.028 µg/mL
[35]
  IC50 (pseudovirus neutralization): 1.56 µg/mL
[36]
  IC50: 1.23 µg/mL
[10]
  IC50 (µg/mL), pseudovirus neutralization: 0.041 µg/mL
[11]
  IC50 (pseudovirus neutralization): 5.99 µg/mL
[12]
  IC50 (µg/mL), pseudovirus neutralization: 9.63 µg/mL
[37]
  IC50: 0.032 µg/mL
[38]
  IC50 (neutralization): 1.32 µg/mL
[13]
  IC50: 24.2 µg/mL
[14]
  IC50: 0.125 µg/mL
[39]
  IC50 (neutralization): 0.44 µg/mL
[15]
  IC50 (pseudovirus neutralization): 0.088 µg/mL
[16]
  IC50 (pseudovirus neutralization): 1.51 µg/mL
[17]
  IC50: 0.027 µg/mL
[40]
  IC50 (pseudovirus neutralization): 17.5 µg/mL
[41]
  IC50 (pseudovirus neutralization): 0.179 µg/mL
[42]
  IC50: 0.258 µg/mL
[43]
  IC50 (pseudovirus neutralization): 0.083 µg/mL
[44]
  IC50 (pseudovirus neutralization): 0.171 µg/mL
[45]
  IC50: 1.26 µg/mL
[46]
  IC50 (pseudovirus neutralization): 2.38 µg/mL
[18]
  IC50 (pseudovirus neutralization): 3.56 µg/mL
[19]
  IC50 (pseudovirus neutralization): 0.063 µg/mL

## VRC01 (antibody)
[20]
  IC50 (pseudovirus neutralization): 0.245 µg/mL
[21]
  IC50 (pseudovirus neutralization): 33.4 µg/mL
[22]
  IC50: 0.066 µg/mL
[23]
  IC50: 0.292 µg/mL
[3]
  IC50: 2.36 µg/mL
[24]
  IC50: 0.553 µg/mL
[25]
  IC50: 0.421 µg/mL
[26]
  IC50 (pseudovirus neutralization): > 50 µg/mL
[4]
  IC50: 0.319 µg/mL
[27]
  IC50: 1.19 µg/mL
[28]
  IC50 (pseudovirus neutralization): 0.055 µg/mL
[29]
  IC50 (pseudovirus neutralization): 1.11 µg/mL
[30]
  IC50 (pseudovirus neutralization): > 50 µg/mL
[5]
  IC50: 2.46 µg/mL
[31]
  IC50 (pseudovirus neutralization): 0.039 µg/mL
[32]
  IC50 (neutralization): 1.16 µg/mL
[6]
  IC50 (neutralization): 0.576 µg/mL
[33]
  IC50: 0.29 µg/mL
[34]
  IC50: 0.1 µg/mL
[7]
  IC50: 0.722 µg/mL
[8]
  IC50 (pseudovirus neutralization): 1.57 µg/mL
[9]
  IC50: 0.06 µg/mL
[35]
  IC50 (pseudovirus neutralization): 3.22 µg/mL
[36]
  IC50: 0.657 µg/mL
[10]
  IC50: 0.088 µg/mL
[11]
  IC50 (pseudovirus neutralization): 1.89 µg/mL
[12]
  IC50: 1.13 µg/mL
[37]
  IC50: 0.034 µg/mL
[38]
  IC50 (neutralization): 0.644 µg/mL
[13]
  IC50: 1.81 µg/mL
[14]
  IC50: 0.36 µg/mL
[39]
  IC50 (neutralization): 0.576 µg/mL
[15]
  IC50 (pseudovirus neutralization): 0.087 µg/mL
[16]
  IC50 (pseudovirus neutralization): 1.72 µg/mL
[17]
  IC50: 0.06 µg/mL
[40]
  IC50 (pseudovirus neutralization): > 50 µg/mL
[41]
  IC50 (pseudovirus neutralization): 0.387 µg/mL
[42]
  IC50: 0.1 µg/mL
[43]
  IC50 (pseudovirus neutralization): 0.097 µg/mL
[44]
  IC50 (pseudovirus neutralization): 0.392 µg/mL
[45]
  IC50: 0.424 µg/mL
[46]
  IC50 (pseudovirus neutralization): 1.08 µg/mL
[18]
  IC50 (pseudovirus neutralization): 0.854 µg/mL
[19]
  IC50 (pseudovirus neutralization): 0.167 µg/mL
